Earlier results in PMC10775509.
Like-named read-outs stand apart in the source and are kept apart here.

Legend:
TREM-1 (Mus musculus) [1] = biological target: TREM-1 (Mus musculus) (UniProt Q9JKE2)
TREM-1 (Mus musculus) [2] = biological target: TREM-1 (Mus musculus) (UniProt Q9JKE2); remark: listed apart in the source

UniProt Q9JKE2, sequence (Q9JKE2 21-230): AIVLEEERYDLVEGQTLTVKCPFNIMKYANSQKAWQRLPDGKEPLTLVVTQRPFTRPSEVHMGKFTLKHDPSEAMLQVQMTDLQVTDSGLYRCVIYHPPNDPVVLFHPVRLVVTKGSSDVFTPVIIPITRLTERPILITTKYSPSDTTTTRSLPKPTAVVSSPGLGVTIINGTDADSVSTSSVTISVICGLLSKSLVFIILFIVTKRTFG

Kd (TREM-1 (Mus musculus) [1])	Kd (TREM-1 (Mus musculus) [2])	Substance
117 nM	–	CIRP (from UniProt P60824)
–	35.4 µM	HMGB1 (from UniProt P63158)
